Patent US20110243927A1

Target: β5 integrin (human, ITGB5) (human)
Test: cell-based or functional assay

“anti-β5 integrin subunit monoclonal antibody KN52 (eBiosciences)” gave a % Inhibition of cell growth, SKBr3 cells, SRB assay, 5 days, antibody alone at 0.08 µg/ml (trastuzumab 0) of 30%, a % Inhibition of cell growth, SKBr3 cells, SRB assay, 5 days, antibody alone at 0.4 µg/ml (trastuzumab 0) of 43.7% and a % Inhibition of cell growth, SKBr3 cells, SRB assay, 5 days, antibody alone at 2 µg/ml (trastuzumab 0) of 52.6%. It also gave a % Inhibition of cell growth, SKBr3 cells, SRB assay, 5 days, antibody alone at 10 µg/ml (trastuzumab 0) of 71.5%, a % Inhibition of cell growth, SKBr3 cells, SRB assay, 5 days, antibody alone at 50 µg/ml (trastuzumab 0) of 76.2% and an Inhibition of cell proliferation, 184-A1 (normal breast cell line), 10 µg/ml, 4 days, vs isotype control of 0%. It also gave an Inhibition of cell proliferation, 231 (breast), 10 µg/ml, 4 days, vs isotype control of 23%, an Inhibition of cell proliferation, 435 (breast), 10 µg/ml, 4 days, vs isotype control of 33.7% and an Inhibition of cell proliferation, 453 (breast), 10 µg/ml, 4 days, vs isotype control of 24.9%. The Inhibition of cell proliferation, 468 (breast), 10 µg/ml, 4 days, vs isotype control was 44.3%, the Inhibition of cell proliferation, A172 (brain), 10 µg/ml, 4 days, vs isotype control was 90% and the Inhibition of cell proliferation, A549 (lung), 10 µg/ml, 4 days, vs isotype control was 60 to 80%. The Inhibition of cell proliferation, BT-474 (breast), 10 µg/ml, 4 days, vs isotype control was 0%, the Inhibition of cell proliferation, CaoV3 (ovary), 10 µg/ml, 4 days, vs isotype control was 45.9% and the Inhibition of cell proliferation, Colo205 (colon), 10 µg/ml, 4 days, vs isotype control was 27.2%. For the same substance, the Inhibition of cell proliferation, Du145 (prostate), 10 µg/ml, 4 days, vs isotype control was 17.1%, the Inhibition of cell proliferation, Du-4475 (breast), 10 µg/ml, 4 days, vs isotype control was 2.13% and the Inhibition of cell proliferation, H358 (lung), 10 µg/ml, 4 days, vs isotype control was 30.1%. The Inhibition of cell proliferation, H460 (lung), 10 µg/ml, 4 days, vs isotype control was 39.7%, the Inhibition of cell proliferation, HCC-1419 (breast), 10 µg/ml, 4 days, vs isotype control was 20.9% and the Inhibition of cell proliferation, HCC-1954 (breast), 10 µg/ml, 4 days, vs isotype control was 39.3%. For the same substance, the Inhibition of cell proliferation, HCT8 (colon), 10 µg/ml, 4 days, vs isotype control was 33%, the Inhibition of cell proliferation, HCT15 (colon), 10 µg/ml, 4 days, vs isotype control was 58.7% and the Inhibition of cell proliferation, HMEC C (normal human mammary epithelial cells), 10 µg/ml, 4 days, vs isotype control was 0%. The Inhibition of cell proliferation, MCF7 (breast), 10 µg/ml, 4 days, vs isotype control was 49.1%, the Inhibition of cell proliferation, PC3 (prostate), 10 µg/ml, 4 days, vs isotype control was 11.2% and the Inhibition of cell proliferation, SK-N-SH (brain), 10 µg/ml, 4 days, vs isotype control was 40%. For the same substance, the Inhibition of cell proliferation, SKBr3 (breast), 10 µg/ml, 4 days, vs isotype control was 26.2%, the Inhibition of cell proliferation, SW480 (colon), 10 µg/ml, 4 days, vs isotype control was 30.2% and the Inhibition of cell proliferation, SW620 (colon), 10 µg/ml, 4 days, vs isotype control was 48.5%. It also gave an Inhibition of cell proliferation, SW626 (ovary), 10 µg/ml, 4 days, vs isotype control of 29.7%, an Inhibition of cell proliferation, SW1783 (listed under colon), 10 µg/ml, 4 days, vs isotype control of 26.6% and an Inhibition of cell proliferation, Skov3 (ovary), 10 µg/ml, 4 days, vs isotype control of 15.1%. It also gave an Inhibition of cell proliferation, T47D (breast), 10 µg/ml, 4 days, vs isotype control of 30.9%.
